1 molecule from US20130039917A1 can be followed below.

In this assay the target is PRELP expressed on the cell surface of human cancer cells (human), P51888. Briefly: cell-based or functional assay.
Sequence of PRELP expressed on the cell surface of human cancer cells (human), P51888 (P51888 21-382): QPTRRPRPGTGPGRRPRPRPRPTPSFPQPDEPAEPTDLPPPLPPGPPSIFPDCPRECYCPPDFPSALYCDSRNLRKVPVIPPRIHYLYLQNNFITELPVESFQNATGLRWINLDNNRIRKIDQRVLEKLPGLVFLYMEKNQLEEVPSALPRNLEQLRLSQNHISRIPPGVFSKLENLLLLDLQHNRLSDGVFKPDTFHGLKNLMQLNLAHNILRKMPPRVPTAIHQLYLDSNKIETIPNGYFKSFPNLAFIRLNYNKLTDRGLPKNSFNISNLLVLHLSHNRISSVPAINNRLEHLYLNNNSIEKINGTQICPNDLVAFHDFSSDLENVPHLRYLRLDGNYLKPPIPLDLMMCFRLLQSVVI

B1: anti-PRELP-SS clone 6G1-G11 (antibody, mouse IgM, V domains shown)
VH: EVKLQQSGAELVKPGASVKLSCTASGFNIKDTYMHWVKQRPEQGLEWIGRIDPANGNTKYDPKFQGKATITADTSSNTAYLQLSSLTSEDTAVYYCARSTTVVVDYWGQGTTLTVSS
VL: DILLTQTPAIKSASPGEKVTMTCSASSSISYMHWYQQKPGTSPKRWIYDTSKLASGVPARFSGSGSGTSYSLTISSMEAEDAATYYCHQRSSYPTFGAGTKLELK
The molecule B1 gave an apoptosis (Annexin V-FITC and propidium iodide staining) of CLL cells, 18 hrs, 2.5 ug antibody of 16.9%; an apoptosis (Annexin V-FITC and propidium iodide staining) of CLL cells, 18 hrs, 5 ug antibody of 32.2%; an apoptosis (Annexin V-FITC and propidium iodide staining) of CLL cells, 18 hrs, 7.5 ug antibody of 39.2%.
